# In PMC6276879 (The EMBO Journal, 2018):
# Molecular target: T1, phosphorylated ubiquitin (UniProt P0CG48 1-76, phosphorylated by PINK1 (pUb); the residue is not given)
# T1 construct: ubiquitin, phosphorylated by PINK1 (pUb); also called pUb; phospho-ubiquitin; source: E. coli BL21(DE3)CodonPlus-RIL; phosphorylated with Pediculus humanus PINK1, purified (Superdex 75)
# Experiment: SEC; 1.5-fold excess pUb over R0RBR in 20 mM Tris, 75 mM NaCl, 250 uM TCEP, pH 8; 1:1 complex purified on Superdex 75 10/300
# Conditions: both partners purified
binder,measurement,value
"R0RBR parkin (141-465) (domain or fragment, human, UniProt O60260 141-465, looked up, parkin, human, residues 141-465 (R0RBR: RING0-RING1-IBR-RING2(Rcat)); also called R0RBR C-terminal region of parkin; source: E. coli BL21(DE3), purified (HisTrap, Ulp1 cleavage, HisTrap, Superdex 75); not shown: His-smt3, N-terminal, cleaved) SIYNSFYVYCKGPCQRVQPGKLRVQCSTCRQATLTLTQGPSCWDDVLIPNRMSGECQSPHCPGTSAEFFFKCGAHPTSDKETSVALHLIATNSRNITCITCTDVRSPVLVFQCNSRHVICLDCFHLYCVTRLNDRQFVHDPQLGYSLPCVAGCPNSLIKELHHFRILGEEQYNRYQQYGAEECVLQMGGVLCPRPGCGAGLLPEPDQRKVTCEGGNGLGCGFAFCRECKEAYHEGECSAVFEASGTTTQAYRVDERAAEQARWEAASKETIKKTTKPCPRCHVPVEKNGGCMHMKCPQPQCRLEWCWNCGCEWNRVCMGDHWFDV",binding result,binds
